Sequences and labels used below:
B1: MinD (natural protein)
chain: MARIIVVTSGKGGVGKTTSSAAIATGLAQKGKKTVVIDFDIGLRNLDLIMGCERRVVYDFVNVIQGDATLNQALIKDKRTENLYILPASQTRDKDALTREGVAKVLDDLKAMDFEFIVCDSPAGIETGALMALYFADEAIITTNPEVSSVRDSDRILGILASKSRRAENGEEPIKEHLLLTRYNPGRVSRGDMLSMEDVLEILRIKLVGVIPEDQSVLRASNQGEPVILDINADAGKAYADTVERLLGEERPFRFIEEEKKGFLKRLFGG

Series [1] concerns the molecule itself. Briefly: mass-sensitive particle tracking.
The series “MinD” addresses B1. Briefly: mass-sensitive particle tracking.

The values below come from doi:10.1101/2021.04.08.438961 (bioRxiv, 2021).

Several values for one entry are separate records, joined by “and”; a condition that tells them apart may be missing. Identical values can stand only once.

In general, stoichiometry N refers to a count of units in the complex or per binding partner. Turning to B1, the “stoichiometry N” value in series [1] was 2 and > 2 and 3 and 4.

B2: MinD D40A (natural protein)
chain: MARIIVVTSGKGGVGKTTSSAAIATGLAQKGKKTVVIDFAIGLRNLDLIMGCERRVVYDFVNVIQGDATLNQALIKDKRTENLYILPASQTRDKDALTREGVAKVLDDLKAMDFEFIVCDSPAGIETGALMALYFADEAIITTNPEVSSVRDSDRILGILASKSRRAENGEEPIKEHLLLTRYNPGRVSRGDMLSMEDVLEILRIKLVGVIPEDQSVLRASNQGEPVILDINADAGKAYADTVERLLGEERPFRFIEEEKKGFLKRLFGG
For the molecule B2, in series [1], the “stoichiometry N” value is 2 and 4.

B3: MinE (natural protein)
chain: MALLDFFLSRKKNTANIAKERLQIIVAERRRSDAEPHYLPQLRKDILEVICKYVQIDPEMVTVQLEQKDGDISILELNVTLPEAEELK
Turning to B3, the binding result with MinD is recorded as “binds”.
